Assays:
[1] = target: recombinant human mature Factor D (human) (UniProt P00746); experiment: ELISA: antibody titrated 3-fold from 3 ug/ml on plate coated with 1 ug/ml recombinant human mature Factor D; HRP anti-mouse, rat or human secondary; OD450
[2] = target: recombinant human Pro-Factor D (human) (UniProt P00746); experiment: ELISA: antibody titrated 3-fold from 3 ug/ml on plate coated with 1 ug/ml recombinant human pro-Factor D; HRP anti-mouse, rat or human secondary; OD450

- EC50 (read off the curve) [1]: 0.04 µg/mL
- EC50 (read off the curve) [2]: 0.02 µg/mL
Substance: MAB18241 (antibody)

— US20250179160A1
